Values joined by “and” are separate entries in the source; they are usually repeats but may differ in a detail not shown here. Identical values can stand only once.
Assays:
TtSlyDcas = target: T1, TtSlyDcas; assay: ELISA, coated antigen
T1 construct: scaffold without hairpin insert, negative control
T1 chain: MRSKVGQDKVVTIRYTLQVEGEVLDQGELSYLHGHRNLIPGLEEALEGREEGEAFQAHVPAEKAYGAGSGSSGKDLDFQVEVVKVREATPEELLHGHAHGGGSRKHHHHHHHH
Procedure: (§1) For the ELISA the screening an antigen down format was used. […] Hybridoma Supernatant was added to the plates and incubated for 1 h at room temperature. Bound antibody was detected with a HRP-labeled F(ab′)₂ goat anti-mouse Fcγ (Dianova) and ABTS (Roche) was used as a HRP-substrate.
(§2) As negative controls the scaffold proteins TtSlyDcas and TgSlyDΔIF were used.

TgSlyDcys-Her3 = target: T2, TgSlyDcys-Her3; assay: ELISA, coated antigen
T2 chain: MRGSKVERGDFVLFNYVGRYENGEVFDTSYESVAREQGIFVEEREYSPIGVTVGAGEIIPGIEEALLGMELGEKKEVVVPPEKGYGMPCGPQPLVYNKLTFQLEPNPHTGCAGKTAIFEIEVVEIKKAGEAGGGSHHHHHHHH
Procedure: as §1, §2

TtSlyDcys-Her3 = target: T3, TtSlyDcys-Her3; assay: ELISA, coated antigen
T3 chain: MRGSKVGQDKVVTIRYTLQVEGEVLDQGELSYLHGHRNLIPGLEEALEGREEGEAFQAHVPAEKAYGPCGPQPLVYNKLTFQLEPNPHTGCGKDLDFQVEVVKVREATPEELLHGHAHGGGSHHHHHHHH
Procedure: as §1, §2

[1] = target: T4, human HER2 Extracellular Domain (ECD) (human, UniProt P04626 23-652); assay: ELISA, coated antigen
T4 construct: human recombinant, 69.6 kDa; also called Her2 ECD; HER2_ECD
Procedure: as §1, §2

[2] = target: T5, human Heregulin fragment (HRG) (human); assay: SPR Biacore T100, antibody captured, 25 C
T5 construct: 44 kDa homodimeric protein, expressed in FreeStyle 293-F cells; also called Heregulin beta; HRG1β
T5 chain: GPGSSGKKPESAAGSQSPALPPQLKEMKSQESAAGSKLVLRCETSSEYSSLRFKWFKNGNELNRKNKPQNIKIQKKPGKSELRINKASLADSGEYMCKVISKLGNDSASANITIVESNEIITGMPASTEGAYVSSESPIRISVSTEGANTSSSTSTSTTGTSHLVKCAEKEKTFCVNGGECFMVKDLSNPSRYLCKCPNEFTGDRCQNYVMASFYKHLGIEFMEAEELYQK
Procedure: (§3) A CM5 series sensor was mounted into the system and was normalized in HBS-ET buffer (10 mM HEPES pH 7.4, 150 mM NaCl, 3 mM EDTA, 0.005% w/v Tween 20) according to the manufacturer's instructions. The sample buffer was the system buffer supplemented with 1 mg/ml CMD (Carboxymethyldextran, Sigma #86524). The system operated at 25° C. 6500 RU RAM-Fcγ (relative units of Fcγ-fragment RamIgG, GE Healthcare) were immobilized according to the manufacturer's instructions using EDC/NHS chemistry on all four flow cells. The sensor was deactivated using 1M ethanolamine.
(§4) The binding activity of the respective antibody against the analytes was kinetically tested. Antibodies were captured at 35 nM concentration by a 1 min injection at 5 μl/min. The flow rate was set to 100 μl/min.
(§5) Analytes in solution were injected at different concentration steps of 0 nM, 1.1 nM, 3.7 nM, 11.1 nM, 33.1 nM and 90 nM for 3.5 min. The dissociation was monitored for 15 min. Where possible, kinetic signatures were evaluated according to a Langmuir fit.

HER3 ECD-HRG complex = target: T6, HER3 ECD-HRG complex (human, UniProt P21860 20-643); assay: SPR Biacore T100, antibody captured, 25 C
T6 construct: HER3 ECD preincubated with a 3- to 6-fold molar excess of Heregulin ('open' conformation); biotinylated Her3-ECD in the ribosome display; also called HER3-ECD/HRG1β
Procedure: as §3, §4, §5

HER4 ECD-HRG complex = target: T7, HER4 ECD-HRG complex (human, UniProt Q15303 26-651); assay: SPR Biacore T100, antibody captured, 25 C
T7 construct: HER4 ECD preincubated with a 5-fold molar excess of Heregulin
T7 sequence 1: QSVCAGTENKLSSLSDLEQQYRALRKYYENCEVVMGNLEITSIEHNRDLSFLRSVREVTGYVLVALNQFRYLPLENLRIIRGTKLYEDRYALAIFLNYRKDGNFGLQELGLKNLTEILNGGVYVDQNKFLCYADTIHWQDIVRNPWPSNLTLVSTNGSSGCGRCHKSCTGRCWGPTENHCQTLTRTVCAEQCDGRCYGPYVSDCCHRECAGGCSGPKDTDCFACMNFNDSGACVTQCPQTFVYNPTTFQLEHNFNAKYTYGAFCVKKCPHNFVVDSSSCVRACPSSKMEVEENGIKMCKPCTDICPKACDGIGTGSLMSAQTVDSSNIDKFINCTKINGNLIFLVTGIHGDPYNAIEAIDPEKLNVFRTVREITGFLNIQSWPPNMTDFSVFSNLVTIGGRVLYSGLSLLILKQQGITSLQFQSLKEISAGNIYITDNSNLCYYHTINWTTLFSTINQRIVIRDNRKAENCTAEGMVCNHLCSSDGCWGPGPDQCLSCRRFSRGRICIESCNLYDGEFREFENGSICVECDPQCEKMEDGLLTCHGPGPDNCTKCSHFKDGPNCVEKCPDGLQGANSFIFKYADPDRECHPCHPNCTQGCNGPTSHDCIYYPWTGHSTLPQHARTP
T7 sequence 2: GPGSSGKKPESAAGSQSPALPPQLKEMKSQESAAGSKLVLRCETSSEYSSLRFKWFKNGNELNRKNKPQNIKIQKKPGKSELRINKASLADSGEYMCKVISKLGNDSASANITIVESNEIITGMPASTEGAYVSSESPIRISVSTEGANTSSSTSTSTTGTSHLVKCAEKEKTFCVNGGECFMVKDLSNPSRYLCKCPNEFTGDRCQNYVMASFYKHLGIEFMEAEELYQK
Procedure: as §3, §4, §5

[3] = target: T4, human HER2 Extracellular Domain (ECD); assay: SPR Biacore T100, antibody captured, 25 C
Procedure: as §3, §4, §5

[4] = target: T8, human HER3 Extracellular Domain (ECD) (human, UniProt P21860 20-643); assay: SPR Biacore T100, antibody captured, 25 C
T8 construct: human recombinant, 68 kDa; 'closed' conformation without ligand; also called Her3 ECD; Her-3 ECD
Procedure: as §3, §4, §5

[5] = target: T9, human HER4 Extracellular Domain (ECD) (human, UniProt Q15303 26-651); assay: SPR Biacore T100, antibody captured, 25 C
T9 construct: also called Her4 ECD; HER4-ECD
T9 sequence: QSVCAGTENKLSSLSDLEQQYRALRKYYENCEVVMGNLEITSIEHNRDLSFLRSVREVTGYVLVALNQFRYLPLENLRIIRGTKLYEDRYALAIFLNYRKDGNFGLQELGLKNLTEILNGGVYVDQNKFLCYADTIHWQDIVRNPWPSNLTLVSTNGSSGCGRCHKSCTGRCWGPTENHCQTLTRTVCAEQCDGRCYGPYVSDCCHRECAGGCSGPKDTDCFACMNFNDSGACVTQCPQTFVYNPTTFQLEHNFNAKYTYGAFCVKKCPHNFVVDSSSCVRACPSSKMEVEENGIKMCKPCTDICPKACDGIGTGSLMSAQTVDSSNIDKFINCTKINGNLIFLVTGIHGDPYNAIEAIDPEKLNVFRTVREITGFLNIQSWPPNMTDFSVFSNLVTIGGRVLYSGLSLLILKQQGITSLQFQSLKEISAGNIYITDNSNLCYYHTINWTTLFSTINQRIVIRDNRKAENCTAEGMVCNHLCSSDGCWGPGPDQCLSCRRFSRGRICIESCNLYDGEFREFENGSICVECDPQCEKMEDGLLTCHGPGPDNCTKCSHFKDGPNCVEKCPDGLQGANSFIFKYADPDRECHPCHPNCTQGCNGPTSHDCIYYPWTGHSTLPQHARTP
Procedure: as §3, §4, §5

- ELISA signal (TtSlyDcas): 0.023
- ELISA signal (TgSlyDcys-Her3): 3.16
- ELISA signal (TtSlyDcys-Her3): 3.15
- ELISA signal [1]: 0.02
- binding result [2]: no binding (tested: up to 90 nM)
- BL (Binding Late) (HER3 ECD-HRG complex): 160 RU
- Kd (HER3 ECD-HRG complex): 4.2 nM and 4 nM
- MR (Molar Ratio) (HER3 ECD-HRG complex): 0.6
- koff (HER3 ECD-HRG complex): 0.00027 s⁻¹
- kon (HER3 ECD-HRG complex): 63000 M⁻¹ s⁻¹
- BL (Binding Late) (HER4 ECD-HRG complex): 349 RU
- Kd (HER4 ECD-HRG complex): 5.2 nM and 5 nM
- MR (Molar Ratio) (HER4 ECD-HRG complex): 0.6
- koff (HER4 ECD-HRG complex): 0.00083 s⁻¹
- kon (HER4 ECD-HRG complex): 160000 M⁻¹ s⁻¹
- binding result [3]: no binding (tested: up to 90 nM)
- BL (Binding Late) [4]: 70 RU
- Kd [4]: 2.2 nM and 2 nM
- MR (Molar Ratio) [4]: 0.2
- koff [4]: 2.8e-05 s⁻¹
- kon [4]: 13000 M⁻¹ s⁻¹
- BL (Binding Late) [5]: 27 RU
- Kd [5]: 150 nM
- MR (Molar Ratio) [5]: 0.1
B1: anti-HER3/HER4 antibody M-05-74 (antibody, V domains shown)
VH: QVQLQQSGAELAKPGASVKMSCKTSGYTLTDYWIHWVKQRPGQGLEWIGYINPYTGYTESNQKFKDKATLTADKSSNTAYIQLSSLTSEDSAVYYCARPYYYGDYWGQGTTLTVSS
VL: QIVLTQSPAIMSASPGERVTITCSASSSVSYMHWFQQKPGTSPKLLIYSTSNLASGVPARFSGSGSGTSYSLTISRMEAEDAATYYCQQRSSYPFTFGSGTKLEIK
notes: murine monoclonal IgG from hybridoma (supernatant or purified), bivalent; also called M-074; M-5-74

— US20170233490A1 (Hoffmann-La Roche, published 2017)
